Our source for the Kd, kon and koff values is US20250208146A1 (UNIVERSITY OF FLORIDA RESEARCH FOUNDATION, published 2025).

Assay [1] concerns the target T1, Z Alpha-1 Antitrypsin (Z-AAT) (human, UniProt P01009 25-418).
T1 construct: In the assays the protein was Z-AAT purified from plasma of Pi*ZZ patients, or Z-AAT in Z/Z plasma; also called Z-variant of alpha-1 antitrypsin; Z-AAT protein variant
In words: BLI (Octet): antibody from hybridoma supernatant loaded on the biosensor at 15ug/mL, ZAAT 500nM in HEPES buffer, association 300.81 s, dissociation 800.02 s, one concentration; Full R^2 0.7794. A general note: In BLI a coated tip is dipped into the sample, and binding shifts an interference pattern.

In assay [2] the target is T1, Z Alpha-1 Antitrypsin (Z-AAT). In words: BLI (Octet): antibody from hybridoma supernatant loaded on the biosensor at 15ug/mL, ZAAT 500nM in HEPES buffer, association 300.81 s, dissociation 800.02 s, one concentration; column head kdis(1/s); Full R^2 0.7794.

As usually defined, the Kd is the concentration at which binding is half-saturated. The low end stands for higher affinity, the high end for lower affinity. In general, kon refers to the rate constant with which the complex forms. Low readings indicate slow association, high ones fast association. One may read the koff as the first-order rate constant of dissociation. A low value points to a long-lived complex.

T1 sequence (P01009 25-418 E366K limits assumed): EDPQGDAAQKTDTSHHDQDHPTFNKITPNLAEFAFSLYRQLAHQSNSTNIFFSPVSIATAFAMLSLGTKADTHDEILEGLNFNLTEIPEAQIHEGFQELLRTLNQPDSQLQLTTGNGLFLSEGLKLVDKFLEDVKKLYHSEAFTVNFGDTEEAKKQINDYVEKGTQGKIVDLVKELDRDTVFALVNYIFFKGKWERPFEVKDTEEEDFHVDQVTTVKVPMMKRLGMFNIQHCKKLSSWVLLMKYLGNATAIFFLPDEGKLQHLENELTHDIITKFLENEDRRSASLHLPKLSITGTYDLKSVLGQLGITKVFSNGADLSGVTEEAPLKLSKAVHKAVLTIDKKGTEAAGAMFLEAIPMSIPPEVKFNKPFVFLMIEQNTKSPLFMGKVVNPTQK

B1: HL2440 (antibody, V domains shown)
VH: QVQLQQPGAELVKPGASVKMSCKASGYTFTSYWITWVKQRPGQGLEWIGDIYPGSGSTNYNEKFKNKATLTVDTSSSTAYMQLSSLTSEDSAVYYCAAAVKGFAYWGQGTLVTVSA
VL: DIVMTQSHKFMSTSVGDRVSITCKASQDVGTAVAWYQQKPGQSPKLLIYWASTRHTGVPDRFTGSGSGTDFTLTISNVQSEDLADYFCQQYSTYPLTFGSGTKLEIK
notes: Mouse monoclonal from a hybridoma, used as supernatant or purified; also called Z-specific antibody HL2440; ZAAT mAb
Turning to B1, in assay [1], the Kd amounted to 37.6 nM and the kon was 33200 M⁻¹ s⁻¹. The same molecule yielded a koff in assay [2] of 0.00125 s⁻¹.
